The values that follow come from patent publication US20200317768A1 (published 2020).

Holding throughout (assay): SPR (Biacore); KD of SG1 / KD of variant;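 note: relative to parent M103205H795-SG1 carrying the SG1 human heavy chain constant region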
In general terms: In SPR one partner is held on a chip, and binding of the other changes the refractive index at the surface.

Assay [1] deals with T1, human FcγRIIIaV extracellular domain, C-terminal His-tag (human, UniProt P08637 17-208).
T1 construct: also called human FcgRIIIaV; FcgRIIIaV
T1 sequence (P08637 17-208 F176V): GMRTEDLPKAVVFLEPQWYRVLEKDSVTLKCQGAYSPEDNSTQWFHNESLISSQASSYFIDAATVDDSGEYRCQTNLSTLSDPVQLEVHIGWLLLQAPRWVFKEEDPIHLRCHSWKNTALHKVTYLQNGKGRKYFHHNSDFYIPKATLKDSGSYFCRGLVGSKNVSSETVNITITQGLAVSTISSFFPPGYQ
As to the method:
(§1) The kinetic analysis of interactions between these antibodies and FcγR was carried out using BIACORE® T200 or BIACORE® 4000 (GE Healthcare). HBS-EP+ (GE Healthcare) was used as the running buffer, and the measurement temperature was set to 25° C. A chip produced by immobilizing Protein A. Protein A/G or mouse anti-human IgG kappa light chain (BD Biosciences) onto a Series S Sensor Chip CM4 or CM5 (GE Healthcare) by the amine-coupling method was used. […] After the measurement, the antibody captured on the chip was washed off by allowing reaction with 10 mM glycine-HCl, pH1.5 and 25 mM NaOH so that the chip was regenerated and used repeatedly. The sensorgrams obtained as measurement results were analyzed by the 1:1 Langmuir binding model using the BIACORE® Evaluation Software to calculate the binding rate constant ka (L/mol/s) and dissociation rate constant kd (l/s), and the dissociation constant KD (mol/L) was calculated from these values. […] Regarding such interactions, KD values were calculated using the following 1:1 binding model described in BIACORE® T100 Software Handbook BR1006-48 Edition AE.
(§2) The behavior of interacting molecules according to the 1:1 binding model on BIACORE® can be described by Equation 1: Req=C·R max/(KD+C)+RI, wherein, Req is a plot of steady-state binding levels to analyte concentration. C is concentration, RI is bulk refractive index contribution in the sample, and Rmax is analyte binding capacity of the surface. When this equation is rearranged, KD can be expressed as Equation 2: KD=C·Rmax/(Req−RI)−C. KD can be calculated by substituting the values of Rmax, RI, and C into Equation 1 or Equation 2. From the current measurement conditions, RI=0, C=2 μmol/L can be used.

For assay [2], the target named is T2, human FcγRIIaR extracellular domain, C-terminal His-tag (human, UniProt P12318 34-217).
T2 construct: also called human FcγRIIa (type R); FcgRIIaR
T2 chain: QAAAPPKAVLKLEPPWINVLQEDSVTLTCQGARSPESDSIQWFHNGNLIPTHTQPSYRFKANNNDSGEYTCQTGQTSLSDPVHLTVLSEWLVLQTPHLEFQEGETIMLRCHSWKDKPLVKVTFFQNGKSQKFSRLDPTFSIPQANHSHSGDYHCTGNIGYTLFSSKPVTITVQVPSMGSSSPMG
The method, then:
as §1, §2

Assay [3] concerns the target T3, human FcγRIIaH extracellular domain, C-terminal His-tag (human, UniProt P12318 34-217).
T3 construct: also called human FcγRIIa (type H); FcgRIIaH
T3 sequence: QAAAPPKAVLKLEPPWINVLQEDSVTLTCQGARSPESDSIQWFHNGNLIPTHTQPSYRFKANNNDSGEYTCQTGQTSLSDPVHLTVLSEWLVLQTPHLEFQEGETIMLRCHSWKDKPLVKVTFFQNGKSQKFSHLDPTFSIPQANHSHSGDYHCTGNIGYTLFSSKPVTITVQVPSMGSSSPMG
As to the method: as §1, §2

In assay [4] the target is T4, cynomolgus monkey FcγRIIa2 extracellular domain, C-terminal His-tag (cynomolgus monkey).
T4 construct: also called cyno FcγRIIa2; cynoFcgRIIa2
T4 chain: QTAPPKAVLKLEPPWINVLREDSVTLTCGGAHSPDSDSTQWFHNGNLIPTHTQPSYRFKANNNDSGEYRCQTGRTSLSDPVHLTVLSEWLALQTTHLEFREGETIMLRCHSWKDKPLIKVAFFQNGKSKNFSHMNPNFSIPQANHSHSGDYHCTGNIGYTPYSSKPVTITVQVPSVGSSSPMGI
The method, then:
as §1, §2

The target of assay [5] is T5, cynomolgus monkey FcγRIIb extracellular domain, C-terminal His-tag (cynomolgus monkey).
T5 construct: also called cyno FcγRIIb; cynoFcγRIIb
T5 chain: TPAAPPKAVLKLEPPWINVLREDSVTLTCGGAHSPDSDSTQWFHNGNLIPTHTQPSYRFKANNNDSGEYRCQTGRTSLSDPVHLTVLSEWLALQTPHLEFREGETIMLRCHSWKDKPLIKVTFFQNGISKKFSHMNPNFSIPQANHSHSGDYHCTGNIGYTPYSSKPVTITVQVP
The method, then: as §1, §2

The target of assay [6] is T6, cynomolgus monkey FcγRIIIaS extracellular domain, C-terminal His-tag (cynomolgus monkey, UniProt Q8SPW2 21-206 at identity 1.00)).
T6 construct: also called cyno FcγRIIIaS; cynoFcγRIIIaS
T6 chain: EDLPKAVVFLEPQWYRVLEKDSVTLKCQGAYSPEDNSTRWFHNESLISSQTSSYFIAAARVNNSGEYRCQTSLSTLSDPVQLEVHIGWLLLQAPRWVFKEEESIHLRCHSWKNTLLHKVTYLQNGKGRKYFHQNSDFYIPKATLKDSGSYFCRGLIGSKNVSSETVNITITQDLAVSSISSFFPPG
The method, then: as §1, §2

For assay [7], the target named is T7, cynomolgus monkey FcγRIIa3 extracellular domain, C-terminal His-tag (cynomolgus monkey).
T7 construct: also called cyno FcγRIIa3; cynoFcgRIIa3
T7 chain: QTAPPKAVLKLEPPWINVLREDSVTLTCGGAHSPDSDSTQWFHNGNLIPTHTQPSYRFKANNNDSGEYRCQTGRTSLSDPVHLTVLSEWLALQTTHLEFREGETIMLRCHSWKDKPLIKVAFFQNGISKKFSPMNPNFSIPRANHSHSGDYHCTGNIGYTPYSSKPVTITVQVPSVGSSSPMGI
The method, then: as §1, §2

The target of assay [8] is T8, human FcγRIIb extracellular domain, C-terminal His-tag (human, UniProt P31994 43-217).
T8 construct: also called human FcgRIIb; FcgRIIb
T8 sequence: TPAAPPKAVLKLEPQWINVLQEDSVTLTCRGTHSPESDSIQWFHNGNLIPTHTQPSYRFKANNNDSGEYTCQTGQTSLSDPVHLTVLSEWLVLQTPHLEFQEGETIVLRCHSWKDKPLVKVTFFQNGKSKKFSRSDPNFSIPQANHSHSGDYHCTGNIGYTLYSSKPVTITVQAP
The method, then:
as §1, §2

B1: M103205H795-MY050/M103202L889-SK1 (antibody, human IgG1, kappa)
heavy: QVTLKESGPVLVKPTETLTLTCTVSGIDLSHDDISWVRQAPGKGLEWVGIISYAGSTYYASWAKGRLTISKDTSKNQVVLTMTNMDPVDTATYYCARGVPAYSHGGDLWGQGTLVTVSSASTKGPSVFPLAPSSKSTSGGTAALGCLVKDYFPEPVTVSWNSGALTSGVHTFPAVLQSSGLYSLSSVVTVPSSSLGTQTYICNVNHKPSNTKVDKKVEPKSCDKTHTCPPCPAPELLNGPSVFLFPPKPKDTLMISRTPEVTCVVVDVAEEDPEVKFNWYVDGVEVHNAKTKPREEQYNSTYRVVSVLTVLHQDWLNGKEYKCKVSNKALPAPIEKTISKAKGQPREPQVYTLPPSREEMTKNQVSLTCLVKGFYPSDIAVEWESNGQPENNYKTTPPVLDSDGSFFLYSKLTVDKSRWQQGNVFSCSVMHEALHNHYTQKSLSLSP
light: DIVMTQSPATLSLSPGERATLSCTSSQSVYHANWLSWFQQKPGQPPKLLIYWASTLAYGVPSRFSGSGSGTDFTLTISSLQPEDAATYYCAGGYGGGRYAFGQGTKVEIKRTVAAPSVFIFPPSDEQLKSGTASVVCLLNNFYPREAKVQWKVDNALQSGNSQESVTEQDSKDSTYSLSSTLTLSKADYEKHKVYACEVTHQGLSSPVTKSFNRGEC
notes: Substitutions introduced into M103205H795-SG1; expressed with M103202L889-SK1 as light chain
As to B1, the “KD fold (SG1 = 1)” value came to 0.25 fold in assay [1]; 0.7 fold in assay [2]; 0.5 fold in assay [3]; 1.2 fold in assay [4]; 3.3 fold in assay [5]; 0.21 fold in assay [6]. In addition, the “KD fold (SG1 = 1)” value in assay [7] worked out at 0.9 fold; in assay [8], 6.1 fold.

B2: M103205H795-MY051/M103202L889-SK1 (antibody, human IgG1, kappa)
heavy: QVTLKESGPVLVKPTETLTLTCTVSGIDLSHDDISWVRQAPGKGLEWVGIISYAGSTYYASWAKGRLTISKDTSKNQVVLTMTNMDPVDTATYYCARGVPAYSHGGDLWGQGTLVTVSSASTKGPSVFPLAPSSKSTSGGTAALGCLVKDYFPEPVTVSWNSGALTSGVHTFPAVLQSSGLYSLSSVVTVPSSSLGTQTYICNVNHKPSNTKVDKKVEPKSCDKTHTCPPCPAPELLNGPSVFLFPPKPKDTLMISRTPEVTCVVVDVSEEDGEVKFNWYVDGVEVHNAKTKPREEQYNSTYRVVSVLTVLHQDWLNGKEYKCKVSNKALPAPIEKTISKAKGQPREPQVYTLPPSREEMTKNQVSLTCLVKGFYPSDIAVEWESNGQPENNYKTTPPVLDSDGSFFLYSKLTVDKSRWQQGNVFSCSVMHEALHNHYTQKSLSLSP
light: DIVMTQSPATLSLSPGERATLSCTSSQSVYHANWLSWFQQKPGQPPKLLIYWASTLAYGVPSRFSGSGSGTDFTLTISSLQPEDAATYYCAGGYGGGRYAFGQGTKVEIKRTVAAPSVFIFPPSDEQLKSGTASVVCLLNNFYPREAKVQWKVDNALQSGNSQESVTEQDSKDSTYSLSSTLTLSKADYEKHKVYACEVTHQGLSSPVTKSFNRGEC
notes: as for B1
With B2, the “KD fold (SG1 = 1)” value amounted to 0.11 fold in assay [1]; 0.4 fold in assay [2]; 0.3 fold in assay [3]; 1.1 fold in assay [4]; 0.9 fold in assay [5]; 0.17 fold in assay [6]. For the same molecule, the “KD fold (SG1 = 1)” value in assay [7] stood at 0.9 fold; in assay [8] it was 2.3 fold.

B3: M103205H795-MY052/M103202L889-SK1 (antibody, human IgG1, kappa)
heavy: QVTLKESGPVLVKPTETLTLTCTVSGIDLSHDDISWVRQAPGKGLEWVGIISYAGSTYYASWAKGRLTISKDTSKNQVVLTMTNMDPVDTATYYCARGVPAYSHGGDLWGQGTLVTVSSASTKGPSVFPLAPSSKSTSGGTAALGCLVKDYFPEPVTVSWNSGALTSGVHTFPAVLQSSGLYSLSSVVTVPSSSLGTQTYICNVNHKPSNTKVDKKVEPKSCDKTHTCPPCPAPELLNGPSVFLFPPKPKDTLMISRTPEVTCVVVDVSEEDPEVKFNWYVDGVEVHNAKTKPREEQYNSTYRVVSVLTVLHQDWLNGKEYKCKVSNKALPAPIEKTISKAKGQPREPQVYTLPPSREEMTKNQVSLTCLVKGFYPSDIAVEWESNGQPENNYKTTPMVLDSDGSFFLYSKLTVDKSRWQQGNVFSCSVMHEALHNHYTQKSLSLSP
light: DIVMTQSPATLSLSPGERATLSCTSSQSVYHANWLSWFQQKPGQPPKLLIYWASTLAYGVPSRFSGSGSGTDFTLTISSLQPEDAATYYCAGGYGGGRYAFGQGTKVEIKRTVAAPSVFIFPPSDEQLKSGTASVVCLLNNFYPREAKVQWKVDNALQSGNSQESVTEQDSKDSTYSLSSTLTLSKADYEKHKVYACEVTHQGLSSPVTKSFNRGEC
notes: as for B1
On to B3, for which the “KD fold (SG1 = 1)” value came to 0.18 fold in assay [1]; 0.5 fold in assay [2]; 0.8 fold in assay [3]; 3.4 fold in assay [4]; 8.9 fold in assay [5]; 0.14 fold in assay [6]. In addition, the “KD fold (SG1 = 1)” value was 4.4 fold in assay [7] and 6.4 fold in assay [8].

B4: M103205H795-MY101/M103202L889-SK1 (antibody, human IgG1, kappa)
heavy: QVTLKESGPVLVKPTETLTLTCTVSGIDLSHDDISWVRQAPGKGLEWVGIISYAGSTYYASWAKGRLTISKDTSKNQVVLTMTNMDPVDTATYYCARGVPAYSHGGDLWGQGTLVTVSSASTKGPSVFPLAPSSKSTSGGTAALGCLVKDYFPEPVTVSWNSGALTSGVHTFPAVLQSSGLYSLSSVVTVPSSSLGTQTYICNVNHKPSNTKVDKKVEPKSCDKTHTCPPCPAPELLNGPSVFLFPPKPKDTLMISRTPEVTCVVVDVSEEDPEVKFNWYVDGVEVHNAKTKPREEQYNSTYRVVSVLTVLHQDWLNGKEYKCKVSNKALPKPIEKTISKAKGQPREPQVYTLPPSREEMTKNQVSLTCLVKGFYPSDIAVEWESNGQPENNYKTTPMVLDSDGSFFLYSKLTVDKSRWQQGNVFSCSVMHEALHNHYTQKSLSLSP
light: DIVMTQSPATLSLSPGERATLSCTSSQSVYHANWLSWFQQKPGQPPKLLIYWASTLAYGVPSRFSGSGSGTDFTLTISSLQPEDAATYYCAGGYGGGRYAFGQGTKVEIKRTVAAPSVFIFPPSDEQLKSGTASVVCLLNNFYPREAKVQWKVDNALQSGNSQESVTEQDSKDSTYSLSSTLTLSKADYEKHKVYACEVTHQGLSSPVTKSFNRGEC
notes: also called MS1032LO06-MY101
In the case of B4, the “KD fold (SG1 = 1)” value was determined as 0.07 fold in assay [1]; 1.3 fold in assay [2]; 1.4 fold in assay [3]; 4.3 fold in assay [4]; 5.1 fold in assay [5]; 0.11 fold in assay [6]. For the same molecule, the “KD fold (SG1 = 1)” value in assay [7] came out at 4.7 fold; in assay [8], 9.4 fold.
